Results from the supplement of paper PMC10724198.
± gives the standard deviation of the averaged measurements.

Tested on: Saccharomyces cerevisiae
Assay: protein stability index of tFT-peptide fusion (C-terminal peptide) (PSI (0-1 scale)); higher = more stable (slower turnover)
Details: temperature: 30 C
Procedure: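 MPS profiling in S. cerevisiae of the yeast C-terminome library: the last 12 aa of each annotated ORF are fused to the C-terminus of a sfGFP-mCherry timer, after a GGGS linker. Cells are FACS-sorted into 8 mCherry/sfGFP bins and deep-sequenced. PSI runs from 0 (unstable) to 1 (stable); wild type and das1Δ backgrounds, two technical replicates each.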

[1] = genetic background: das1 deletion

Sequence	protein stability index [1]	protein stability index (genetic background: wild type)
EEKTKKEKSLLQ [NPP2 C-terminal 12 aa]	0.7035 ± 0.0011	0.726 ± 0.072
EELPSDIATLLN [YKR059W; YJL138C C-terminal 12 aa]	0.7021 ± 0.00081	0.716 ± 0.031
EESDSPESTAFY [PMC1 C-terminal 12 aa]	0.699 ± 0.01	0.6671 ± 0.0055
EETEKKLKNLKL [YRB30 C-terminal 12 aa]	0.703 ± 0.029	0.684 ± 0.037
EEVLEETKEKVE [PRT1 C-terminal 12 aa]	0.689 ± 0.034	0.685 ± 0.013
EEWSSKFGSNGS [YTA6 C-terminal 12 aa]	0.7431 ± 0.0031	0.725 ± 0.014
EFLQIMKARISK [SEC24 C-terminal 12 aa]	0.686 ± 0.011	0.716 ± 0.048
EGRGYQQIHKLS [YHR139C-A C-terminal 12 aa]	0.721 ± 0.018	0.253 ± 0.0035
EGSAFKKQKHYR [NOP9 C-terminal 12 aa]	0.703 ± 0.0097	0.701 ± 0.012
EIALRKSGAVGS [YMR008C-A C-terminal 12 aa]	0.689 ± 0.008	0.6727 ± 0.0038
EIGGLLLQSFYN [YPL119C-A C-terminal 12 aa]	0.687 ± 0.039	0.7378 ± 0.0018
EIGHMYQKIKKS [MNN11 C-terminal 12 aa]	0.721 ± 0.0077	0.317 ± 0.014
EIKCCHNGRALK [SAT4 C-terminal 12 aa]	0.668 ± 0.023	0.697 ± 0.06
EIKQRNLRMQRQ [MPO1 C-terminal 12 aa]	0.683 ± 0.026	0.678 ± 0.01
EKAKKSLSKMFS [CPR6 C-terminal 12 aa]	0.688 ± 0.018	0.6927 ± 0.0033
EKLKLLNSQQKD [PET191 C-terminal 12 aa]	0.682 ± 0.014	0.722 ± 0.029
ELASSILKELKL [KIN1 C-terminal 12 aa]	0.707 ± 0.022	0.703 ± 0.054
ELDDILGSDSDF [MPH1 C-terminal 12 aa]	0.711 ± 0.02	0.6837 ± 0.0036
ELEELLEPILAN [GRX1 C-terminal 12 aa]	0.406 ± 0.028	0.4708 ± 0.00077
ELFTIISRIIED [TSL1 C-terminal 12 aa]	0.702 ± 0.016	0.711 ± 0.046
ELIEKLKEVKAI [CIR1 C-terminal 12 aa]	0.686 ± 0.018	0.34 ± 0.013

Sequence	protein stability index [1]	protein stability index (genetic background: wild type)
ELKINNDGRLVN [SEC66 C-terminal 12 aa]	0.7137 ± 0.0053	0.714 ± 0.074
ELKKRFDALRRK [IST1 C-terminal 12 aa]	0.686 ± 0.015	0.647 ± 0.0071
ELLRIHNSHLRN [FOL3 C-terminal 12 aa]	0.715 ± 0.031	0.709 ± 0.042
ELWYKSFGPHDE [APC1 C-terminal 12 aa]	0.7 ± 0.027	0.7187 ± 0.0068
ENWIHVSCLSFM [LIN1 C-terminal 12 aa]	0.6634 ± 0.0048	0.6503 ± 0.0039
EQITSSLQEASE [FSH1 C-terminal 12 aa]	0.67 ± 0.016	0.656 ± 0.0082
EQNFHFQFPPTN [IOC2 C-terminal 12 aa]	0.7147 ± 0.0049	0.729 ± 0.021
ERDTTTKPSKRR [KEL3 C-terminal 12 aa]	0.7092 ± 0.0049	0.698 ± 0.013
ERNPTQRPQRRY [RPS10A C-terminal 12 aa]	0.728 ± 0.036	0.679 ± 0.036
ERPIVASTSPIA [TPH3 C-terminal 12 aa]	0.71247 ± 4.2e-05	0.681 ± 0.0089
ERWVRMGELMHY [YBR184W C-terminal 12 aa]	0.686 ± 0.018	0.538 ± 0.058
ERYTSIESEIVV [APE4 C-terminal 12 aa]	0.6735 ± 0.0063	0.673 ± 0.023
ESKDDDDDDDWE [DOS2 C-terminal 12 aa]	0.709 ± 0.038	0.648 ± 0.0095
ESRLFISDGAVF [MON1 C-terminal 12 aa]	0.696 ± 0.0082	0.713 ± 0.041
ESSSPSQLQHEA [PHO84 C-terminal 12 aa]	0.6938 ± 0.006	0.682 ± 0.024
ESTGHVDFGQNR [OTU1 C-terminal 12 aa]	0.7 ± 0.012	0.703 ± 0.012
ETAENIAKYIRN [NPA3 C-terminal 12 aa]	0.682 ± 0.024	0.661 ± 0.035
ETMVRIRVDGNE [DAD2 C-terminal 12 aa]	0.665 ± 0.027	0.676 ± 0.025
EVDDDGEIDGLF [ADE3 C-terminal 12 aa]	0.7153 ± 0.0044	0.692 ± 0.021
EVPGWQEYYDKL [YOR133W; YDR385W C-terminal 12 aa]	0.72 ± 0.018	0.71 ± 0.016
EVTSLYTNASNA [DPC29 C-terminal 12 aa]	0.715 ± 0.011	0.703 ± 0.049

Sequence	protein stability index [1]	protein stability index (genetic background: wild type)
EYNLDTFIKTLR [MOT1 C-terminal 12 aa]	0.7535 ± 0.0064	0.6883 ± 0.0023
FAKLAAIPCSNA [YMR265C C-terminal 12 aa]	0.553 ± 0.0059	0.5659 ± 0.0046
FEHFHCVLDQIL [YDR203W C-terminal 12 aa]	0.7056 ± 0.0043	0.6954 ± 0.0031
FFFATQRDLKRT [YDR431W C-terminal 12 aa]	0.715 ± 0.05	0.733 ± 0.019
FFMSDMNLSKEG [ATG13 C-terminal 12 aa]	0.752 ± 0.016	0.654 ± 0.048
FFPFITIIFFHS [YCR024C-B C-terminal 12 aa]	0.324 ± 0.026	0.299 ± 0.01
FGIKKNDLKKSN [GSF2 C-terminal 12 aa]	0.708 ± 0.014	0.705 ± 0.023
FGRKLKKIFGRK [SEG2 C-terminal 12 aa]	0.675 ± 0.035	0.6421 ± 0.0063
FIEALAKSVNEL [UGA1 C-terminal 12 aa]	0.7371 ± 0.0042	0.689 ± 0.054
FKELLGYTLVSA [VSB1 C-terminal 12 aa]	0.356 ± 0.03	0.391 ± 0.0093
FKITTEHGTTQQ [CRT10 C-terminal 12 aa]	0.675 ± 0.0095	0.685 ± 0.031
FKLKDEYLLIDD [SAS2 C-terminal 12 aa]	0.69 ± 0.016	0.666 ± 0.031
FLIHTPKHPPPT [POG1 C-terminal 12 aa]	0.698 ± 0.011	0.725 ± 0.021
FMWLLLALPVVF [FLO11 C-terminal 12 aa]	0.362 ± 0.027	0.393 ± 0.019
FRALAELYNLVL [GAS5 C-terminal 12 aa]	0.701 ± 0.02	0.681 ± 0.013
FRSTRSNTPNYT [HDA2 C-terminal 12 aa]	0.728 ± 0.018	0.737 ± 0.046
FTAVLGTYLLTL [SDH3 C-terminal 12 aa]	0.6494 ± 0.005	0.645 ± 0.0016
FVLKTLNMNVTN [OST1 C-terminal 12 aa]	0.681 ± 0.0095	0.668 ± 0.0024
FVRKIYSSIKVD [EMP70 C-terminal 12 aa]	0.665 ± 0.025	0.614 ± 0.04
FYNIHDERIREQ [YKL162C-A C-terminal 12 aa]	0.746 ± 0.013	0.657 ± 0.078
GATDTSCYKERG [MRPL27 C-terminal 12 aa]	0.695 ± 0.026	0.702 ± 0.085

Sequence	protein stability index [1]	protein stability index (genetic background: wild type)
GEEKKHLKMASP [MDE1 C-terminal 12 aa]	0.6905 ± 0.0062	0.704 ± 0.035
GELFQIVSNQSS [STE6 C-terminal 12 aa]	0.702 ± 0.017	0.679 ± 0.0082
GFKGFSNKRVKG [MSS18 C-terminal 12 aa]	0.689 ± 0.015	0.6964 ± 0.0036
GFRLRFWKSLGF [CYT2 C-terminal 12 aa]	0.706 ± 0.029	0.716 ± 0.023
GGFDDGFDGSDF [WWM1 C-terminal 12 aa]	0.719 ± 0.012	0.728 ± 0.0098
GGKIFSLKLTLI [YPR108W-A C-terminal 12 aa]	0.673 ± 0.011	0.384 ± 0.023
GGLSDIGKNTSN [HUG1 C-terminal 12 aa]	0.693 ± 0.013	0.684 ± 0.016
GGNSSKKGKKKR [RQC2 C-terminal 12 aa]	0.6835 ± 0.00078	0.724 ± 0.022
GGRNQYGGDDDY [DDR48 C-terminal 12 aa]	0.698 ± 0.015	0.6858 ± 0.0067
GKKLKKIFGRKK [SEG1 C-terminal 12 aa]	0.719 ± 0.006	0.6627 ± 0.0025
GKTDYLDTKLIF [EKI1 C-terminal 12 aa]	0.739 ± 0.02	0.726 ± 0.0084
GKVAKYIFDNIC [BNA7 C-terminal 12 aa]	0.696 ± 0.015	0.722 ± 0.024
GKVLFKPSSSIF [YBR064W C-terminal 12 aa]	0.719 ± 0.011	0.695 ± 0.017
GKYFLKEEQDEI [YUR1 C-terminal 12 aa]	0.692 ± 0.025	0.7058 ± 0.0067
GKYNIKVKLNFI [VAR1 C-terminal 12 aa]	0.704 ± 0.027	0.69 ± 0.096
GLQFHFKAEHKD [PHO86 C-terminal 12 aa]	0.701 ± 0.014	0.686 ± 0.058
GLSDEEDSSEED [RRT14 C-terminal 12 aa]	0.679 ± 0.00072	0.698 ± 0.021
GLVATAVKQLPQ [VPS64 C-terminal 12 aa]	0.674 ± 0.0032	0.662 ± 0.014
GNINDDDDGFFD [PLP2 C-terminal 12 aa]	0.724 ± 0.021	0.698 ± 0.019
